Target: human CD3 (huCD3ed) (human) (UniProt P07766)
Test: Biacore SPR, antibody as ligand, hCD3ed 80 nM-0.64 nM, kinetic fit

human CD3 (huCD3ed) (human), sequence (P07766 23-126, chain 1 of 2): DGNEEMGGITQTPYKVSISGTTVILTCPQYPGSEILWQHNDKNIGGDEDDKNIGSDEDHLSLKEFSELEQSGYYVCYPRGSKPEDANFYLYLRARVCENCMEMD
human CD3 (huCD3ed) (human), sequence (P04234 22-105, chain 2 of 2, further chain): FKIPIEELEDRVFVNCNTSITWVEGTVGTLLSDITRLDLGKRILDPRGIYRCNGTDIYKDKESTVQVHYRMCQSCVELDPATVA

Kd: 10.7 nM
t1/2: 3.8 min
Substance: SP34 (antibody)
